{"source": "patent US20060003434", "tested_on": "T1, FLAG-Heme1B (human Eme1B, FLAG tagged at the C terminus)", "T1 sequence": "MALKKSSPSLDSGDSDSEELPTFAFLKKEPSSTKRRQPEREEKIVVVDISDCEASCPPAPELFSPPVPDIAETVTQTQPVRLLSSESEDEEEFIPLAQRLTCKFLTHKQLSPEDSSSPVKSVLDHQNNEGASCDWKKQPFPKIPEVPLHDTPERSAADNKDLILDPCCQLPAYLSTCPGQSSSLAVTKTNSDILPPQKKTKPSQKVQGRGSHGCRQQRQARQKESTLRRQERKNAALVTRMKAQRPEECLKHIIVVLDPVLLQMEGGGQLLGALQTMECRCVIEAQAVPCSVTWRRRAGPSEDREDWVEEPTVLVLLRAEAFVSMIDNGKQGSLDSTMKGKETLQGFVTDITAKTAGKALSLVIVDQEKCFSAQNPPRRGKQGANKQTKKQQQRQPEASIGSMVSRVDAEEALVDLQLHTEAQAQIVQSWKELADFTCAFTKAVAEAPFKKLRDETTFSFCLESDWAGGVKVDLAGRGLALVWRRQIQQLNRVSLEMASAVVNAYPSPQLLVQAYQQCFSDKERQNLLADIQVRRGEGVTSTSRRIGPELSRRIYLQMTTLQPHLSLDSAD"}
{"substance": "3HaMus81 (triple hemagglutinin (3Ha) tagged Hmus81), wild type", "values": [{"measurement": "endonuclease activity of immune-precipitates on a 3' flap substrate", "value": "The activity of 3HaMus81 was greatly increased in cells that had been co-transfected with FLAG-Eme1B"}]}
